# Experimental data: patent US20080262203A1 (published 2008)
# Where “and” joins values, the source holds several entries; their conditions need not be identical. Equal entries are not always repeated.
# B1: mouse monoclonal antibody 656.35 (antibody, IgG2a, V domains shown)
# VH: QVQLQQSGAELVRPGTSVTISCKASGYTFTNYWIVWVKQRPGHGLEWIGDLYSGGGYTFYSENFKGKATLTADTSSSTAYMHLISLTSEDSAVYFCARSGYDRTWFAHWGQGSLVTVSA
# VL: DIKMTQSPSSMSASLGERVTITCQASQDIESYLSWYQQKPWKSPKTLIYYATRLADGVPSRFSGSGSGQDYSLTISSLESDDTATYYCLQHGESPPTFGAGTKLELKR
# notes: Murine hybridoma mAb
# B2: Chimera Antibody (HcLc) made from 656.35 (antibody, human IgG1, kappa, V domains shown)
# VH: QVQLQQSGAELVRPGTSVTISCKASGYTFTNYWIVWVKQRPGHGLEWIGDLYSGGGYTFYSENFKGKATLTADTSSSTAYMHLISLTSEDSAVYFCARSGYDRTWFAHWGQGSLVTVSS
# VL: DIKMTQSPSSMSASLGERVTITCQASQDIESYLSWYQQKPWKSPKTLIYYATRLADGVPSRFSGSGSGQDYSLTISSLESDDTATYYCLQHGESPPTFGAGTKLELKR
# notes: also called the Chimera Antibody; chimera (HcLc)
# B3: humanized penta-specific antibody construct H0M0 (antibody, human IgG1, kappa, V domains shown)
# VH: QVQLVQSGAEVKKPGASVKVSCKASGYTFTNYWIVWVRQAPGQGLEWMGDLYSGGGYTFYSENFKGRVTMTRDTSTSTVYMELSSLRSEDTAVYYCARSGYDRTWFAHWGQGTLVTVSS
# VL: EIVLTQSPATLSLSPGERATLSCQASQDIESYLSWYQQKPGQAPRLLIYYATRLADGIPARFSGSGSGTDFTLTISSLEPEDFAVYYCLQHGESPPTFGQGTKLEIKR
# notes: H0 mature heavy chain with M0 mature light chain
# B4: humanized penta-specific antibody construct H0L7 (antibody, human IgG1, kappa, V domains shown)
# VH: QVQLVQSGAEVKKPGASVKVSCKASGYTFTNYWIVWVRQAPGQGLEWMGDLYSGGGYTFYSENFKGRVTMTRDTSTSTVYMELSSLRSEDTAVYYCARSGYDRTWFAHWGQGTLVTVSS
# VL: DIQMTQSPSSLSASVGDRVTITCQASQDIESYLSWYQQKPGKAPKLLIYYATRLADGVPSRFSGSGSGTDFTLTISSLQPEDFATYYCLQHGESPPTFGQGTKLEIKR
# notes: H0 mature heavy chain with L7 mature light chain
# B5: humanized penta-specific antibody construct H0L8 (antibody, human IgG1, kappa, V domains shown)
# VH: QVQLVQSGAEVKKPGASVKVSCKASGYTFTNYWIVWVRQAPGQGLEWMGDLYSGGGYTFYSENFKGRVTMTRDTSTSTVYMELSSLRSEDTAVYYCARSGYDRTWFAHWGQGTLVTVSS
# VL: DIQMTQSPSSLSASVGDRVTITCQASQDIESYLSWYQQKPGKAPKLLIYYATRLADGVPSRFSGSGSGTDFTFTISSLQPEDIATYYCLQHGESPPTFGQGTKLEIKR
# notes: H0 mature heavy chain with L8 mature light chain
# B6: humanized penta-specific antibody construct H0L10 (antibody, human IgG1, kappa, V domains shown)
# VH: QVQLVQSGAEVKKPGASVKVSCKASGYTFTNYWIVWVRQAPGQGLEWMGDLYSGGGYTFYSENFKGRVTMTRDTSTSTVYMELSSLRSEDTAVYYCARSGYDRTWFAHWGQGTLVTVSS
# VL: DIQMTQSPSSLSASVGDRVTITCQASQDIESYLSWYQQKPGKAPKLLIYYATRLADGVPSRFSGSGSGQDYTLTISSLQPEDFATYYCLQHGESPPTFGQGTKLEIKR
# notes: H0 mature heavy chain with L10 mature light chain
# B7: mouse monoclonal antibody 81.1 (antibody, IgG2a, V domains shown)
# VH: EVQLQQSGPELEKPGASVKISCKASGYSFTVYGMNWVRQSNGKSLEWIGNFDPYFSVTSYNQKFQDKATLTVDKSSSTAYMQLKNLTSEDSAVYFCARGSWETIFAYWGQGTLVTVSA
# VL: QAVVTQESALTTSPGETVTLTCRSSTGAVTTSNYANWVQEKPDHLFTGLIGGTNNRAPGVPARFSGSLIGDKAALTITGAQTEDEAIYFCALWYSNHVFGGGTKLTVLQ
# notes: Murine hybridoma mAb
# B8: mouse monoclonal antibody 197.2 (antibody, IgG2a, V domains shown)
# VH: EFQLQQSGPELVKPGASVKISCKASGYSFTDYNMNWVKQSNGKSLEWIGVINPKYGTTSYNQKFKGKATLTVDQSSNTAYMQLSSLTSEDSAVYHCARGMGLLFGMDYWGQGTSVTVSS
# VL: DIVMTQSPSSLSVSAGEKVTMSCKSSQSLLNSGNQKNYLAWYQQKPGQPPKLLIYGASTRKSGVPDRFTGSGSGTDFTLTISSVQAEDLAVYYCQNDHSFPCTFGGGTKLEIKR
# notes: Murine hybridoma mAb
# Tests used:
# [1] = molecular target: T1, human Gro-beta (human, UniProt P19875 35-107); assay: Biacore SPR, BE: mAb amine-coupled;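 also: analytes IL-8, Gro-b and ENA-78 flowed at defined concentrations over the antibody surface, buffer injection used for double referencing, kinetics fitted to a 1:1 binding model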
# T1 construct: also called Gro-β; hGROβ
# Method: (§1) For experiment designated BE, purified antibodies directly immobilized to the chip by amine coupling was used.
# (§2) Defined concentrations of each analyte (IL8, Gro-band ENA-78) are passed over the immobilized or captured antibody surface, a separate capture event is used for each analyte injection. After each injection of analyte the surface is regenerated by injection
# (§3) An injection of buffer is also injected over the antibody captured surface and this is used for double referencing. The data is analyzed using the analysis software inherent to the machine, using the 1:1 model of binding.
# [2] = molecular target: T2, human ENA-78 (human, UniProt P42830 37-114, limits assumed); assay: Biacore SPR, BE: mAb amine-coupled;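 also: analytes IL-8, Gro-b and ENA-78 flowed at defined concentrations over the antibody surface, buffer injection used for double referencing, kinetics fitted to a 1:1 binding model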
# T2 construct: also called hENA-78; CXCL5
# Method: as §1, §2, §3
# [3] = molecular target: T3, human IL-8 (human, UniProt P10145 28-99, limits assumed); assay: Biacore SPR, BE: mAb amine-coupled;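 also: analytes IL-8, Gro-b and ENA-78 flowed at defined concentrations over the antibody surface, buffer injection used for double referencing, kinetics fitted to a 1:1 binding model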
# T3 construct: also called hIL-8; hIL8
# Method: as §1, §2, §3
# [4] = molecular target: T1, human Gro-beta; assay: Biacore SPR, KL: anti-mouse Fc capture
# Method: (§4) Supernatant or purified antibody from parental mouse mAb is captured on the anti-mouse IgG-Fc surface. Defined concentrations of each analyte (IL8, Gro-band ENA-78) are passed over the immobilized or captured antibody surface, a separate capture event is used for each analyte injection. After each injection of analyte the surface is regenerated by injection
# as §3
# [5] = molecular target: T2, human ENA-78; assay: Biacore SPR, KL: anti-mouse Fc capture
# Method: as §4, §3
# [6] = molecular target: T3, human IL-8; assay: Biacore SPR, KL: anti-mouse Fc capture
# Method: as §4, §3
# [7] = molecular target: T4, human Gro-alpha (human, UniProt P09341 35-107); assay: TRFIA, chemokine coated on plate, biotinylated anti-mouse IgG and streptavidin-europium detection
# T4 construct: also called Gro-α; hGROα
# Method: (§5) Briefly, each antigen (human IL-8, Gro-alpha, Gro-beta, Gro-gamma, GCP-2, and ENA-78, and hIL-18 when used as negative control) is individually coated onto a 96-well immunofluorescent plate. The plates are then washed and blocked with a commercially available blocking solution. Blocking solution is emptied and samples containing the mAb are added into each well and incubated for 40 to 60 minutes (this allows the mAb to bind to the target chemokines). The plates are then washed again and a detection Ab is added to each well. […] The detection antibody is conjugated to either europium or biotin. Following another round of washing, to remove unbound detection Ab, a solution of streptavidin-europium was added to biotin detected assays. Streptavidin-europium binds to the biotin allowing for detection. After a final wash to remove unbound streptavidin-europium, or in the case of the humanized MAb assay after the europium conjugate secondary is washed, each well is filled with a chelating detergent solution to activate the europium producing fluorescence. The greater the fluorescence recorded is directly proportionate to the amount of detection Ab present in the well which is directly linked and proportionate to the amount of the chemokine binding mAb.
# [8] = molecular target: T1, human Gro-beta; assay: as above
# Method: as §5
# [9] = molecular target: T5, human Gro-gamma (human, UniProt P19876 35-107); assay: as above
# T5 construct: also called Gro-γ; CXCL3
# Method: as §5
# [10] = molecular target: T2, human ENA-78; assay: as above
# Method: as §5
# [11] = molecular target: T3, human IL-8; assay: as above
# Method: as §5
# [12] = molecular target: T6, hIL-18 (Homo sapiens, UniProt Q14116); assay: TRFIA, hIL-18 coated on plate, biotinylated anti-human IgG Fab2 reagent and streptavidin-europium detection
# T6 construct: Printed on the sheets: 'hIL-18 run as a negative control'; also called human IL-18
# Method: as §5
# [13] = molecular target: T4, human Gro-alpha; assay: TRFIA, chemokine coated on plate, biotinylated anti-human IgG Fab2 reagent and streptavidin-europium detection
# Method: as §5
# [14] = molecular target: T1, human Gro-beta; assay: as above
# Method: as §5
# [15] = molecular target: T5, human Gro-gamma; assay: as above
# Method: as §5
# [16] = molecular target: T2, human ENA-78; assay: as above
# Method: as §5
# [17] = molecular target: T7, human GCP-2 (human, UniProt P80162 38-114, limits assumed); assay: as above
# T7 construct: also called hGCP-2; CXCL6
# Method: as §5
# [18] = molecular target: T3, human IL-8; assay: as above
# Method: as §5
# [19] = molecular target: T4, human Gro-alpha; assay: TRFIA, chemokine coated on plate, europium anti-human IgG detection; antibody concentration not given
# [20] = molecular target: T5, human Gro-gamma; assay: as above
# Method: as §5
# [21] = molecular target: T7, human GCP-2; assay: as above
# Method: as §5
# [22] = molecular target: T2, human ENA-78; assay: Biacore SPR, Protein A capture;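 also: purified antibody captured on Protein A immobilised on a CM5 chip, chemokine analytes flowed over at defined concentrations, buffer injection for double referencing, kinetics fitted with a 1:1 binding model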
# From the text: (§6) A Protein A capture method was used to generate kinetics for the humanised and chimeric constructs as follows:
# (§7) Protein A is immobilised on a CM5 chip by primary amine coupling in accordance with the manufactures instructions. Purified humanised or chimeric antibody is captured on the Protein A surface. After capture defined concentrations of each analyte (IL8, Gro-β and ENA-78) are passed over the antibody captured surface, a separate capture event is used for each analyte injection. […] An injection of buffer is also injected over the antibody captured surface and this is used for double referencing. The data is analysed using the analysis software inherent to the machine, using the 1:1 model of binding.
# [23] = molecular target: T3, human IL-8; assay: Biacore SPR, Protein A capture;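 also: purified antibody captured on Protein A immobilised on a CM5 chip, chemokine analytes flowed over at defined concentrations, buffer injection for double referencing, kinetics fitted with a 1:1 binding model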
# From the text: as §6, §7
# [24] = molecular target: T1, human Gro-beta; assay: Biacore SPR, BE: mAb amine-coupled; BE: mAb amine-coupled;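 as to Kd: analytes IL-8, Gro-b and ENA-78 flowed at defined concentrations over the antibody surface, buffer injection used for double referencing, kinetics fitted to a 1:1 binding model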
# Method: as §1, §2, §3
# [25] = molecular target: T1, human Gro-beta; assay: Biacore SPR, KL: anti-mouse Fc capture; KL: anti-mouse Fc capture
# Method: as §4, §3
binder,measurement,setting,value
B1,Kd,[1],0.111 nM
same,koff,[1],0.00146 s⁻¹
same,kon,[1],1.32e+07 M⁻¹ s⁻¹
same,Kd,[2],0.271 nM
same,koff,[2],0.000796 s⁻¹
same,kon,[2],2.94e+06 M⁻¹ s⁻¹
same,Kd,[3],0.0839 nM
same,koff,[3],0.000687 s⁻¹
same,kon,[3],8.19e+06 M⁻¹ s⁻¹
same,Kd,[4],0.526 nM
same,koff,[4],0.00201 s⁻¹
same,kon,[4],3.82e+06 M⁻¹ s⁻¹
same,Kd,[5],1.74 nM
same,koff,[5],0.00187 s⁻¹
same,kon,[5],1.07e+06 M⁻¹ s⁻¹
same,Kd,[6],0.964 nM
same,koff,[6],0.00148 s⁻¹
same,kon,[6],1.53e+06 M⁻¹ s⁻¹
same,EC50 (read off the curve),[7],~0.03 µg/mL
same,EC50 (read off the curve),[8],~0.02 µg/mL
same,EC50 (read off the curve),[9],~0.02 µg/mL
same,EC50 (read off the curve),[10],~0.02 µg/mL
same,EC50 (read off the curve),[11],~0.03 µg/mL
B2,binding result,[12],no binding (tested: 1000 ng/ml)
same,EC50 (read off the curve),[13],~0.05 µg/mL
same,EC50 (read off the curve),[14],~0.04 µg/mL
same,EC50 (read off the curve),[15],~0.04 µg/mL
same,EC50 (read off the curve),[16],~0.04 µg/mL
same,EC50 (read off the curve),[17],~0.04 µg/mL
same,EC50 (read off the curve),[18],~0.07 µg/mL
B3,binding result,[19],binds
same,binding result,[20],binds
same,binding result,[21],binds
B4,binding result,[19],binds
same,binding result,[20],binds
same,binding result,[21],binds
B5,Kd,[22],0.1 nM and 0.0941 nM and 0.0912 nM and 0.0755 nM
same,koff,[22],0.000288 s⁻¹ and 0.000266 s⁻¹ and 0.000269 s⁻¹ and 0.000248 s⁻¹
same,kon,[22],2.88e+06 M⁻¹ s⁻¹ and 2.82e+06 M⁻¹ s⁻¹ and 2.95e+06 M⁻¹ s⁻¹ and 3.29e+06 M⁻¹ s⁻¹
same,Kd,[23],0.188 nM and 0.143 nM and 0.175 nM and 0.152 nM
same,koff,[23],0.00111 s⁻¹ (2×) and 0.00113 s⁻¹ and 0.00119 s⁻¹
same,kon,[23],5.9e+06 M⁻¹ s⁻¹ and 7.89e+06 M⁻¹ s⁻¹ and 6.8e+06 M⁻¹ s⁻¹ and 7.3e+06 M⁻¹ s⁻¹
same,binding result,[19],binds
same,binding result,[20],binds
same,binding result,[21],binds
B6,Kd,[22],0.0899 nM and 0.0722 nM and 0.0742 nM and 0.0613 nM
same,binding result,[19],binds
same,binding result,[20],binds
same,binding result,[21],binds
B7,Kd,[1],0.0898 nM
same,koff,[1],0.000489 s⁻¹
same,kon,[1],5.44e+06 M⁻¹ s⁻¹
same,Kd,[2],0.0239 nM
same,koff,[2],3.94e-06 s⁻¹
same,kon,[2],165000 M⁻¹ s⁻¹
same,Kd,[3],55.5 nM
same,koff,[3],0.108 s⁻¹
same,kon,[3],1.95e+06 M⁻¹ s⁻¹
same,Kd,[4],0.113 nM
same,koff,[4],0.000312 s⁻¹
same,kon,[4],2.76e+06 M⁻¹ s⁻¹
same,Kd,[5],0.616 nM
same,koff,[5],0.000376 s⁻¹
same,kon,[5],611000 M⁻¹ s⁻¹
same,Kd,[6],4.8 nM
same,koff,[6],0.00932 s⁻¹
same,kon,[6],1.95e+06 M⁻¹ s⁻¹
B8,Kd,[1],< 0.00962 nM
same,kon,[1],1.04e+06 M⁻¹ s⁻¹
same,Kd,[2],10.1 nM
same,koff,[2],0.00302 s⁻¹
same,kon,[2],301000 M⁻¹ s⁻¹
same,Kd,[3],0.69 nM
same,koff,[3],0.000499 s⁻¹
same,kon,[3],723000 M⁻¹ s⁻¹
same,Kd,[5],9 nM
same,koff,[5],0.00269 s⁻¹
same,kon,[5],299000 M⁻¹ s⁻¹
same,Kd,[6],5.89 nM
same,koff,[6],0.00369 s⁻¹
same,kon,[6],627000 M⁻¹ s⁻¹
same,koff,[24],< 1e-05 s⁻¹
same,Kd,[25],0.639 nM
same,koff,[25],0.000993 s⁻¹
same,kon,[25],1.55e+06 M⁻¹ s⁻¹
